In paper PMC12242769 one finds Kd data, which are given here for 1 substance.

Experiment in all cases: EMSA
In data set [1] the test system is TbLa RRM1Δ (Trypanosoma brucei). To be noted: native tRNA modifications except queuosine (from TbTGT2Δ cells); 50 mM HEPES pH 7.5, 1 mM MgCl2, 5 mM KCl; on ice 30 min; ~0.6 nM tRNA, 10 µl; 6% native PAGE.
For data set [2], the system named is TbLa LaMΔ (Trypanosoma brucei). To be noted: native tRNA modifications except queuosine (from TbTGT2Δ cells); 50 mM HEPES pH 7.5, 1 mM MgCl2, 5 mM KCl; on ice 30 min; ~0.6 nM tRNA, 10 µl; 6% native PAGE.
Data set [3] concerns TbLa (wild type) (Trypanosoma brucei). To be noted: 1 mM Mg2+; apparent Kd from Hill fit; native tRNA modifications except queuosine (from TbTGT2Δ cells); 50 mM HEPES pH 7.5, 1 mM MgCl2, 5 mM KCl; on ice 30 min; ~0.6 nM tRNA, 10 µl; 6% native PAGE.

Take native mature tRNATyr lacking Q34: the Kd in data set [1] turned out to be 446 nM; in data set [2], 855 nM; in data set [3] it was 216 nM.
